The record followed here is patent publication US20070020327A1.

As usually defined, the IC50 is the concentration needed to halve the response being measured.

Where two headings read alike, the source gives them in different places.

Assay [1] addresses HLA-A*0202 (human). As to the kind of experiment: competitive inhibition of 125I-labelled standard peptide binding to purified HLA, gel filtration. (In general: In gel filtration, larger molecules generally elute earlier.)
Assay [2] deals with HLA-A*0201 (human). The description is as above.
The target in assay [3] is HLA-A*0203 (human). The description is as above.
Assay [4] concerns the target HLA-A*0206 (human). The assay is described as above.
The target of assay [5] is HLA-A*1101 (human). Nature of the assay: competition with 125I-labelled standard peptide for purified HLA-A*1101, gel filtration.
Assay [6] concerns the target HLA-A*0202 (human). Nature of the assay: inhibition of 125I-labelled probe peptide binding to purified HLA, gel filtration.
The target of assay [7] is HLA-A*0203 (human). The assay is described as above.
Assay [8] has as its target HLA-A*0206 (human). The description is as above.
The target of assay [9] is HLA-A*6802 (human). The description is as above.
Assay [10] has as its target HLA-A*0202 (human). Nature of the assay: competition with 125I-labelled standard peptide 941.01 for purified HLA-A*0202, gel filtration.
Assay [11] addresses HLA-A*0201 (human). As to the kind of experiment: competition with 125I-labelled standard peptide 941.01 for purified HLA-A*0201, gel filtration.
In assay [12] the target is HLA-A*0206 (human). As to the kind of experiment: competition with 125I-labelled standard peptide 941.01 for purified HLA-A*0206, gel filtration.
Assay [13] concerns the target HLA-A*0202 (human). Nature of the assay: competition with 125I standard peptide for purified HLA; gel filtration.
In assay [14] the target is HLA-A*0201 (human). The assay is described as above.
Assay [15] addresses HLA-A*0203 (human). The description is as above.
Assay [16] addresses HLA-A*0206 (human). The description is as above.
In assay [17] the target is HLA-A*0301 (human). As to the kind of experiment: competition with 125I-labeled standard peptide for purified HLA-A*0301, gel filtration.
Assay [18] has as its target HLA-A*0201 (human). Nature of the assay: inhibition of 125I-labelled probe peptide binding to purified HLA, gel filtration.
Assay [19] addresses HLA-A*0301 (human). As to the kind of experiment: competition with 125I-labelled standard peptide for purified HLA-A*0301, gel filtration; ratio to the A*0301 standard peptide 941.12 [..] (11 nM).
Assay [20] addresses HLA-A*1101 (human). As to the kind of experiment: competition with a 125I-labelled standard peptide for purified HLA-A*1101, gel filtration. To be noted: scale: ratio.
Assay [21] addresses HLA-A*0202 (human). As to the kind of experiment: inhibition of 125I-labelled probe peptide binding to purified HLA; gel filtration. The note with it: remark: other sources report otherwise.
Assay [22] addresses HLA-A*0201 (human). The description is as above. To be noted: remark: other sources report otherwise.
The target in assay [23] is HLA-A*0206 (human). The description is as above. To be noted: remark: other sources report otherwise.
Assay [24] has as its target HLA-A*0301 (human). As to the kind of experiment: competition with radiolabeled standard peptide on purified HLA-A*0301, gel filtration. The note with it: scale: ratio.
For assay [25], the target named is HLA-A*0203 (human). As to the kind of experiment: inhibition of 125I-labelled probe peptide binding to purified HLA; gel filtration. To be noted: remark: other sources report otherwise.
For assay [26], the target named is HLA-A*6802 (human). The assay is described as above. To be noted: remark: other sources report otherwise.
Assay [27] has as its target HLA-A*0201 (human). Nature of the assay: competitive inhibition of 125I-labelled standard peptide binding to purified HLA, gel filtration; ratio = IC50 standard / IC50 test peptide. To be noted: remark: other sources report otherwise.
Assay [28] concerns the target HLA-A*0203 (human). Described as above. The note with it: remark: other sources report otherwise.
Setting [29] is: remark: other sources report otherwise.

In the case of ITDVVKVL (modifications not checked) [ITDVVKVL (Kallikrein, position 132)], the binding affinity ratio (ratio to standard peptide) in the assay with HLA-A*0202 (human) [1] was 0.001; in the assay with HLA-A*0201 (human) [2] it was 0.0001; with HLA-A*0203 (human) [3], 0.0001; with HLA-A*0206 (human) [4], -0.0001.

Turning to TGQVFQVSH (modifications not checked) [PSA 82 …], in the assay with HLA-A*1101 (human) [5], the binding affinity ratio (IC50 of standard peptide / IC50 of test peptide) stood at 0.0002.

For the molecule HLLSNDMCARV (modifications not checked) [Peptide 1418.67 (HuK2.177.V11) …], the IC50 worked out at 1.3 nM with HLA-A*0202 (human) [6] (setting [29]), 5.3 nM in the assay with HLA-A*0203 (human) [7] (setting [29]), 37 nM with HLA-A*0206 (human) [8] (setting [29]) and 860 nM with HLA-A*6802 (human) [9] (setting [29]).

With SIALSVGCT (modifications not checked) [… (Kallikrein, position 7)], the binding affinity ratio (IC50 of standard peptide / IC50 of test peptide) with HLA-A*0202 (human) [10] was 0.0006; with HLA-A*0201 (human) [11], -0.0001; with HLA-A*0206 (human) [12] it was 0.0006.

As for ITSWGPEPCA (modifications not checked) [… (Kallikrein, position 226)], the binding affinity ratio (ratio to standard peptide) with HLA-A*0202 (human) [1] (setting [29]) stood at 0.01; with HLA-A*0201 (human) [2] (setting [29]) it was 0.0003; in the assay with HLA-A*0206 (human) [4] (setting [29]), 0.0005.

As to SLSLGFLFLV (modifications not checked) [Peptide 1419.52 … (PAP.13.V10)], the IC50 came to 3.9 nM with HLA-A*0202 (human) [13], 1.8 nM in the assay with HLA-A*0201 (human) [14], 17 nM with HLA-A*0203 (human) [15] and 42 nM with HLA-A*0206 (human) [16].

Consider NFTEIASKF (modifications not checked) [… (PSM, position 638, 9 amino acids)], for which the binding affinity ratio (IC50 of standard peptide / IC50 of test peptide) with HLA-A*0301 (human) [17] came out at 0.0005.

Consider LVFRHGDR (modifications not checked) [LVFRHGDR (PAP, position 40, 8 amino acids)], for which, in the assay with HLA-A*0301 (human) [17], the binding affinity ratio (IC50 of standard peptide / IC50 of test peptide) was determined as 0.0003.

Consider SLHLLSNDMCV (modifications not checked) [Peptide 1418.66 (HuK2.175.V11) …], for which the IC50 with HLA-A*0202 (human) [6] (setting [29]) was found to be 0.8 nM; with HLA-A*0201 (human) [18] (setting [29]) it was 8.6 nM; with HLA-A*0203 (human) [7] (setting [29]) it was 10 nM; in the assay with HLA-A*0206 (human) [8] (setting [29]), 2310 nM; in the assay with HLA-A*6802 (human) [9] (setting [29]) it was 2160 nM.

Consider LTFFWLDRSV (modifications not checked) [Peptide 1418.23 … (PAP.21.T2)], for which the values for the IC50 in the assay with HLA-A*0203 (human) [15] and in the assay with HLA-A*0206 (human) [16] were 9.6 nM and 43 nM, respectively.

Turning to DMSLLKNR (modifications not checked) [PSA 98 peptide DMSLLKNR], the binding affinity ratio (IC50 of standard peptide / IC50 of test peptide) in the assay with HLA-A*0301 (human) [19] was determined as 0.0003. Besides, the binding affinity ratio with HLA-A*1101 (human) [20] is 0.0001.

On to SLQCVSLHLV (modifications not checked) [Peptide 1418.52 (HuK2.170.V10) …], for which the IC50 stood at 6.3 nM in the assay with HLA-A*0202 (human) [6]; 13 nM with HLA-A*0201 (human) [18]; 2.8 nM with HLA-A*0203 (human) [7]; 5.2 nM with HLA-A*0206 (human) [8]; 205 nM with HLA-A*6802 (human) [9].

In the assay with HLA-A*0206 (human) [16] (setting [29]), FMLCAGLWV (modifications not checked) [Peptide 1418.22 … (HuK2.195.V9)] returned an IC50 of 51 nM.

Consider GMPEGDLVY (modifications not checked) [PSM 168 peptide …], for which the binding affinity ratio (IC50 of the standard peptide / IC50 of the test peptide) with HLA-A*1101 (human) [5] was 0.0002.

For the molecule PLLLWQPIPV (modifications not checked) [peptide 63.0042 (PAP.134.L2)], the IC50 in the assay with HLA-A*0202 (human) [21] turned out to be 47 nM; with HLA-A*0201 (human) [22], 238 nM; with HLA-A*0206 (human) [23] it was 336 nM.

As to VLTAAHCIR (modifications not checked) [PSA 56 peptide …], in the assay with HLA-A*0301 (human) [24], the binding affinity ratio amounted to 0.0002.

As for VLPFDCRDYA (modifications not checked) [PSM 592 peptide …], the binding affinity ratio with HLA-A*0301 (human) [24] was 0.0005.

In the case of WATEDTMTK (modifications not checked) [PAP 226 peptide …], in the assay with HLA-A*0301 (human) [24], the binding affinity ratio was found to be 0.0006.

With VTKFMLCAGR (modifications not checked) [PSA 188 peptide …], the binding affinity ratio in the assay with HLA-A*0301 (human) [24] (setting [29]) is 0.0003.

Regarding ITSWGSEPCA (modifications not checked), the binding affinity ratio (ratio to standard peptide) was found to be 0.0036 in the assay with HLA-A*0202 (human) [1], 0.0003 in the assay with HLA-A*0201 (human) [2], 0.003 with HLA-A*0203 (human) [3] and 0.0001 with HLA-A*0206 (human) [4].

Consider GVSIWNPIV (modifications not checked) [peptide 60.0207 (PAP.128.V9)], for which the figures for the IC50 in the assay with HLA-A*0202 (human) [21], with HLA-A*0201 (human) [22] and in the assay with HLA-A*0203 (human) [25] were 269 nM, 455 nM and 909 nM, respectively.

As for KLRELSELSV (modifications not checked) [peptide 63.0048 (PAP.234.V10)], the results for the IC50 with HLA-A*0201 (human) [22] and in the assay with HLA-A*6802 (human) [26] were 263 nM and 1820 nM, respectively.

In the case of TLVFRHGDR (modifications not checked) [PAP 39 …], the binding affinity ratio (IC50 of standard peptide / IC50 of test peptide) in the assay with HLA-A*1101 (human) [5] is 0.0002.

For ITSWGSEPCAL (modifications not checked), the binding affinity ratio (ratio to standard peptide) came to 0.012 with HLA-A*0202 (human) [1] (setting [29]), 0.001 with HLA-A*0201 (human) [2] (setting [29]), 0.0096 in the assay with HLA-A*0203 (human) [3] (setting [29]) and 0.0001 in the assay with HLA-A*0206 (human) [4] (setting [29]).

In the case of MSLLKNRFLR (modifications not checked) [… (PSA, position 99, 10 amino acids)], the binding affinity ratio (IC50 of standard peptide / IC50 of test peptide) with HLA-A*0301 (human) [17] is 0.007.

Take TLRGAVEPDR (modifications not checked) [PSM 361 …]: the binding affinity ratio (IC50 of standard peptide / IC50 of test peptide) with HLA-A*1101 (human) [5] was found to be 0.0002.

In the case of VLSIALSV (modifications not checked) [VLSIALSV (Kallikrein, position 5)], the values for the binding affinity ratio with HLA-A*0201 (human) [27] and in the assay with HLA-A*0203 (human) [28] were 0.005 and 0.02, respectively.

As for ALFPPEGVSI (modifications not checked) [peptide 1419.6 (PAP.122)], the IC50 worked out at 278 nM with HLA-A*0201 (human) [22], 133 nM with HLA-A*0203 (human) [25] and 2640 nM with HLA-A*0206 (human) [23].

As for NLLHETDSA (modifications not checked) [… (PSM, position 3, 9 amino acids)], in the assay with HLA-A*0301 (human) [17], the binding affinity ratio (IC50 of standard peptide / IC50 of test peptide) came to 0.0006.

On to SLQCVSLHLL (modifications not checked) [Peptide 1419.66 (HuK2.170) …], for which the IC50 in the assay with HLA-A*0202 (human) [6] (setting [29]) came out at 4.9 nM; in the assay with HLA-A*0201 (human) [18] (setting [29]) it was 263 nM; in the assay with HLA-A*0206 (human) [8] (setting [29]), 446 nM; with HLA-A*6802 (human) [9] (setting [29]), 5000 nM.

Take SLQCVSLHL (modifications not checked) [Peptide 60.0191 (HuK2.170) …]: the concentration for half-maximal inhibition (IC50) is 51 nM in the assay with HLA-A*0202 (human) [6] (setting [29]), 500 nM in the assay with HLA-A*0201 (human) [18] (setting [29]), 417 nM in the assay with HLA-A*0203 (human) [7] (setting [29]) and 2580 nM with HLA-A*6802 (human) [9] (setting [29]).

Regarding TAAHCIRNK (modifications not checked) [PSA 58 …], in the assay with HLA-A*1101 (human) [5] (setting [29]), the binding affinity ratio (IC50 of standard peptide / IC50 of test peptide) came to 0.014.

Regarding ALDVYNGLL (modifications not checked) [peptide 1177.02 (PAP.299)], the values for the IC50 in the assay with HLA-A*0201 (human) [22] and with HLA-A*0203 (human) [25] were 73 nM and 256 nM, respectively.
